From patent US20080124811A1 (AbbVie / Abbott, published 2008)
Residue numbers refer to the chain shown, from its start. Blank lines part the entries; values can stand above or below the binder they belong to.

Assays:
[1] = target: T1, human brain natriuretic peptide, cyclic BNP (1-32c) (human, cyclic: ring closed by a disulfide bond between the two cysteine residues; biotinylated or acridinium-labelled in some assays); assay: off-rate assay on yeast-displayed scFv; improvement of koff over 106.3 wt
T1 construct: also called hBNP; hBNP 1-32

[2] = target: T1, human brain natriuretic peptide, cyclic …; assay: off-rate assay on yeast-displayed scFv by flow cytometry: biotinylated cyclic BNP (1-32c), chase with unlabelled BNP 1-32c, SA:PE, first order decay fit
Procedure: At each time point, cells were transferred to ice, washed and incubated with SA:PE. After 30 minutes, cells were washed again and analyzed on the flow cytometer. A first order decay equation was used to fit the individual time points where m1 was the theoretical maximum mean fluorescence units (“MFU”) at time 0, m2 was the off-rate (“koff”), m3 was the background MFU due to autofluorescence, and M0 was the time x (the x being the time that is being measured) that measurements are taken.
A first order decay equation was used to fit the data.

[3] = target: T1, human brain natriuretic peptide, cyclic …; assay: surface plasmon resonance (BIAcore)
[4] = target: T1, human brain natriuretic peptide, cyclic …; assay: off-rate assay on yeast-displayed scFv; improvement of koff over 3-631-436 wt
[5] = target: T1, human brain natriuretic peptide, cyclic …; assay: off-rate assay on yeast-displayed scFv by flow cytometry: biotinylated cyclic BNP (1-32c), chase with unlabelled BNP 1-32c, SA:PE, first order decay fit; remark: listed apart in the source
[6] = target: T1, human brain natriuretic peptide, cyclic …; assay: yeast display off-rate assay, flow cytometry; t1/2 = ln 2/koff
Procedure: At each individual time point, yeast cells were transferred to ice to halt the reaction. Cells were then washed twice with PBS/BSA and suspended in secondary staining reagents, specifically, SA:PE and GAM:FITC. Cells were incubated on ice for 30 minutes, washed twice and then analyzed on the FACS Aria flow cytometer. […] A first order decay equation was used to fit the data.

[7] = target: T1, human brain natriuretic peptide, cyclic …; assay: off-rate assay on yeast-displayed scFv by flow cytometry: biotinylated cyclic BNP (1-32c), chase with unlabelled BNP 1-32c, SA:PE; m2 of the first order decay fit (error 3.6694e-06, R 0.9993), time axis in sec
[8] = target: T1, human brain natriuretic peptide, cyclic …; assay: KinExA, solution phase
[9] = target: T1, human brain natriuretic peptide, cyclic …; assay: BIAcore SPR, antibody captured on goat anti-mouse Fc, BNP in solution, 25 C
Procedure: The carboxymethyl-dextran biosensor is activated with a 1:1 mixture of 0.4 M EDC and 0.1 NHS at 20 μL/minute. GAMFc in 10 mM sodium acetate (pH 5.0) is coupled to the activated surface with a 10 minute injection. The surface is then deactivated with 1 M ethanolamine pH 8.5 for 8 minutes followed by another 10 minute injection of GAMFc. This is followed with a biosensor conditioning of ten 60 second injections of 150 mM H₃PO₄ at a flow rate of 30 μL/min. ˜14 kRU, resonance units, of GAMFc is coupled to the biosensor in each flow cell.
(§1) After loading each Ab onto the biosensor, all flow cells are allowed to equilibrate for 5-6 minutes with SPR running buffer at a flow rate of 75 μL/min before a 150 μL injection of BNP or running buffer followed by 360 seconds of dissociation time. Subsequently, the flow rate is changed to 30-100 μL/min and the surface is then regenerated with three 33-60 second pulses of 100-150 mM phosphoric acid at a flow rate of 30-100 μL/min.

[10] = target: T1, human brain natriuretic peptide, cyclic …; assay: … sandwich CMIA; capture 3-631-436 on microparticles, detection 106.3AM1-acridinium
Procedure: (§2) An aliquot containing a calibrator solution was delivered to the same well of the reaction vessel as the microparticles to form a reaction mixture. The calibrator solution contained hBNP full-length peptide. The microparticles coated with the capture antibody in a Tris/BSA diluent were pipetted by the sampling probe into the appropriate wells of the reaction vessel in the sampling center. […] After the incubation, the reaction mixture was washed with the […] ® Line Diluent to remove any of the calibrator that was not captured.
(§3) The mAb-Acridinium-conjugates at about 50-100 ng/mL were dispensed into the reaction vessel and incubated for approximately 4 minutes at a temperature of about 37° C. After the incubation, the reaction vessel was washed with the […] ® Line Diluent to remove the unbound materials.
(§4) The […] ® system measures the acridinium signals which are typically measured in relative light units (hereinafter “rlu's”). Measurements were made in triplicate.

[11] = target: T1, human brain natriuretic peptide, cyclic …; assay: … sandwich CMIA; capture 3631436 ms on microparticles, detection 106.3AM2-acridinium
Procedure: Particles were washed and overcoated with BSA. These particles were used to capture BNP peptide in the assay during the first (1st) incubation with Architect BNP calibrators or specimens.
(§5) An aliquot containing a calibrator solution was delivered to the same well of the reaction vessel as the microparticles to form a reaction mixture. The calibrator solution contained hBNP full-length peptide. The microparticles coated with the capture antibody in a Tris/BSA diluent were pipetted by the sampling probe into the appropriate wells of the reaction vessel in the sampling center. […] After the incubation, the reaction mixture was washed with the […] ® Line Diluent to remove any of the calibrator that was not captured. The […] ® Line Diluent is commercially available from Abbott Laboratories, Abbott Park, Ill.
The mAb-Acridinium-conjugates at about 100 ng/mL were dispensed into the reaction vessel and incubated for approximately 4 minutes at a temperature of about 37° C. After the incubation, the reaction vessel was washed with the […] ® Line Diluent to remove the unbound materials.

[12] = target: T1, human brain natriuretic peptide, cyclic …; assay: Biacore SPR, antibody captured on goat anti-mouse Fc, BNP injected, 1:1 Langmuir fit
Procedure: GAMFc in 10 mM sodium acetate (pH 5.0) is coupled to the activated surface with a 10 minute injection. The surface is then deactivated with 1 M ethanolamine pH 8.5 for 8 minutes followed by another 10 minute injection of GAMFc. This is followed with a biosensor conditioning of ten 60 second injections of 150 mM H₃PO₄ at a flow rate of 30 μL/min. ˜14 kRU, resonance units, of GAMFc is coupled to the biosensor in each flow cell.
as §1

[13] = target: T1, human brain natriuretic peptide, cyclic …; assay: … sandwich CMIA; capture 3-631-436 on microparticles, detection 106.3AM1-acridinium; second particle type
Procedure: as §2, §3, §4

[14] = target: T1, human brain natriuretic peptide, cyclic …; assay: KinExA, solution phase; remark: listed apart in the source
[15] = target: T1, human brain natriuretic peptide, cyclic …; assay: BIAcore SPR, cAb captured on goat anti-human Fc, BNP in solution, 25 C
Procedure: The carboxymethyl-dextran biosensor is activated with an 8 minute injection of a 1:1 mixture of 0.4 M EDC and 0.1 NHS at 20 μL/minute. GAHFc in 10 mM sodium acetate (pH 5.0) is coupled to the activated surface with a 10 minute injection. The surface is then deactivated with 1 M ethanolamine pH 8.5 for 8 minutes followed by another 10 minute injection of GAHFc.
A frozen (−80° C.) aliquot of BNP in dH₂O at 100 μM is diluted into SPR Running Buffer to a concentration of 100 μM.
The sample solution is then switched back to SPR running buffer for another ˜7 hours. The surface is then regenerated with three 33 second pulses of 100 mM phosphoric acid at a flow rate of 100 μL/min.

[16] = target: T1, human brain natriuretic peptide, cyclic …; assay: … sandwich CMIA; capture 106.3AM1 on microparticles, detection 3-631-436-acridinium
Procedure: as §2, §3, §4

[17] = target: T1, human brain natriuretic peptide, cyclic …; assay: … sandwich CMIA; capture 106.3AM1 on microparticles, detection 3-631-436-acridinium; second particle type
Procedure: as §5, §3
A solution of hydrogen peroxide and then sodium hydroxide was added to the reaction vessel and the chemiluminescent signal was measured by the chemiluminescent microparticle immunoassay (CMIA) optical assembly of the […] ® instrument.

B1: H2 288 (scFv)
scFv (VH-linker-VL with V5 and 6His tags), displayed on yeast: QLVQSGPELRKPGETVKISCKGSGYTFTHYGINWVKQTPRKDLKWMGWINTHTGEAYYADDFKGRFAFSLETSANTAYLQINNLNNGDMGTYFCTRSHRFGLDYWGQGTSVTVSSGPAKELTPLKEAKVSDNVLTQSPPSLAVSLGQRATISCKASQSVDYNGDSYLNWYQQKPGQPPKFLIYAASNLESGIPARFSGSGSGTDFNLNIHPVEEEDAATYYCQQSNEDPFTFGSGTKLEIKRAAALESRGPFEGKPIPNPLLGLDSTRTGHHHHHH
notes: member of group m4
Fold Improvement [1]: 2.3 fold | koff [2]: 3.7e-05 s⁻¹

B2: 106.3 wt (Mouse IgG1) (antibody, V domains shown)
VH: QLVQSGPELRKPGETVKISCKGSGYTFTHYGINWVKQTPRKDLKWMGWINTHTGEPIYADDFKGRFAFSLETSANTAYLQINNLNNGDMGTYFCTRSHRFGLDYWGQGTSVTVSS
VL: DNVLTQSPPSLAVSLGQRATISCKASQSVDYNGDSYLNWYQQKPGQPPKFLIYAASNLESGIPARFSGSGSGTDFNLNIHPVEEEDAATYYCQQSNEDPFTFGSGTKLEIKR
notes: also called HB-12044
Kd [3]: 18 pM | koff [3]: 0.00022 s⁻¹ | kon [3]: 1.2e+07 M⁻¹ s⁻¹

B3: 500-2 (scFv)
scFv (VH-linker-VL with V5 and 6His tags), displayed on yeast: QVQLQQPGAELVRPGASVKLSCKASGYTFTSYWMNWVKQRPEQGLEWIGRIDPYDSETHYNQKFKDKAILTVDKSSSTAFVQLTSLTSEDSAVYYCVSDGYWGAGTTVTVSSGPAKELTPLKEAKVSDVVMTQTPLTLSVTTGQPASISCKSSQSLLDSDGKTYLNWLFQRPGESPKLLIYWTTKLESGVPDRFTGSGSGTDFTLKISRVEAEDLGVYYCLQATHFPWTFGGGTKLEIKRAAALESRGPFEGKPIPNPLLGLDSTRTGHHHHHH
notes: selected by on/off-rate sorting; member of group m17
Fold Improvement [4]: 15 fold | koff [5]: 0.00032 s⁻¹

B6: L2 10 (scFv)
scFv (VH-linker-VL with V5 and 6His tags), displayed on yeast: B3 scFv (VH-linker-VL with V5 and 6His tags), displayed on yeast with W182R, T184N
notes: selected by off-rate sorting; member of group m17
Fold Improvement [4]: 3 fold | koff [5]: 0.0019 s⁻¹

B7: L2 4 (scFv)
scFv (VH-linker-VL with V5 and 6His tags), displayed on yeast: B3 scFv (VH-linker-VL with V5 and 6His tags), displayed on yeast with W182H
notes: selected by equilibrium sorting; member of group m17
Fold Improvement [4]: 4 fold | koff [5]: 0.0014 s⁻¹

B9: L2 8 (scFv)
scFv (VH-linker-VL with V5 and 6His tags), displayed on yeast: B3 scFv (VH-linker-VL with V5 and 6His tags), displayed on yeast with T183M, T184N
notes: as for B7
Fold Improvement [4]: 28 fold | koff [5]: 0.00017 s⁻¹

B10: L2 7 (scFv)
scFv (VH-linker-VL with V5 and 6His tags), displayed on yeast: B3 scFv (VH-linker-VL with V5 and 6His tags), displayed on yeast with T183M
notes: as for B7
Fold Improvement [4]: 32 fold | koff [5]: 0.00015 s⁻¹

B14: 3-631-436 (mIgG2bκ, IgG name AM1) (antibody, V domains shown)
VH: QVQLQQPGAELVRPGASVKLSCKASGYTFTSYWMNWVKQRPEQGLEWIGRIDPYDSETHYNQKFKDKAILTVDKSSSTAFVQLTSLTSEDSAVYYCVSDGYWGAGTTVTVSS
VL: DVVMTQTPLTLSVTTGQPASISCKSSQSLLDSDGKTYLNWLFQRPGESPKLLIYVVSKLESGVPDRFTGSGSGTDFTLKISRVEAEDLGVYYCLQATHFPWTFGGGTKLEIKR
notes: recombinant wild-type variable domains on mouse IgG2b/kappa
Kd [12]: 363 pM | koff [12]: 0.0029 s⁻¹ | kon [12]: 8.4e+06 M⁻¹ s⁻¹

B15: wild-type 106.3 chimeric antibody (cAb) (antibody, human IgG1, V domains shown)
VH: QIQLVQSGPELRKPGETVKISCKGSGYTFTHYGINWVKQTPRKDLKWMGWINTHTGEPIYADDFKGRFAFSLETSANTAYLQINNLNNGDMGTYFCTRSHRFGLDYWGQGTSVTVSS
VL: DNVLTQSPPSLAVSLGQRATISCKASQSVDYNGDSYLNWYQQKPGQPPKFLIYAASNLESGIPARFSGSGSGTDFNLNIHPVEEEDAATYYCQQSNEDPFTFGSGTKLEIK
notes: Chimeric mouse variable domains on human IgG1/human kappa; also called anti-BNP WT/WT
Kd [14]: 1.7 pM | Kd [15]: 19 pM | koff [15]: 0.00015 s⁻¹ | kon [15]: 7.8e+06 M⁻¹ s⁻¹

B16: 106.3 AM1 chimeric antibody (antibody, V domains shown)
VH: B15 VH with P58A, I59Y
VL: B15 VL with S26N, Q27W, S28P
modifications: Conjugated to acridinium or biotinylated in the sandwich assays (Examples 4 and 7); the sites are not defined.
notes: PTA-6987; Acridinium-conjugated or biotinylated in the sandwich assays
Kd [14]: 9.3 pM | Kd [15]: 1.9 pM | koff [15]: 2.4e-05 s⁻¹ | kon [15]: 1.3e+07 M⁻¹ s⁻¹ | Ratio B/A (RLU at 30 pg/mL over 0 pg/mL) [16]: 1.6 | Ratio C/A (RLU at 300 pg/mL over 0 pg/mL) [16]: 17.5 | Ratio D/A (RLU at 1000 pg/mL over 0 pg/mL) [16]: 126 | Ratio E/A (RLU at 2000 pg/mL over 0 pg/mL) [16]: 394 | Ratio B/A (RLU at 30 pg/mL over 0 pg/mL) [17]: 1 | Ratio C/A (RLU at 300 pg/mL over 0 pg/mL) [17]: 5.5 | Ratio D/A (RLU at 1000 pg/mL over 0 pg/mL) [17]: 40.5 | Ratio E/A (RLU at 2000 pg/mL over 0 pg/mL) [17]: 132

The remaining lines, values ahead:

Fold Improvement [4]: 9 fold | koff [5]: 0.00053 s⁻¹
B4: 500-1 (scFv)
scFv (VH-linker-VL with V5 and 6His tags), displayed on yeast: B3 scFv (VH-linker-VL with V5 and 6His tags), displayed on yeast with T183M, T184D
notes: as for B3

Fold Improvement [4]: 10 fold | koff [5]: 0.0005 s⁻¹
B5: L2 9 (scFv)
scFv (VH-linker-VL with V5 and 6His tags), displayed on yeast: B3 scFv (VH-linker-VL with V5 and 6His tags), displayed on yeast with W182V, T184D
notes: as for B6

Fold Improvement [4]: 10 fold | koff [5]: 0.00049 s⁻¹
B8: 500-10 (scFv)
scFv (VH-linker-VL with V5 and 6His tags), displayed on yeast: B3 scFv (VH-linker-VL with V5 and 6His tags), displayed on yeast with W182V, T184D, K185I
notes: as for B3

Fold Improvement [4]: 19 fold | koff [5]: 0.00025 s⁻¹
B11: L2 1 (scFv)
scFv (VH-linker-VL with V5 and 6His tags), displayed on yeast: B3 scFv (VH-linker-VL with V5 and 6His tags), displayed on yeast with W182Q, T183N
notes: as for B7

half-life (t1/2) [6]: 2.28 h | koff [2]: 8.4e-05 s⁻¹ | koff [7]: 8.44e-05 s⁻¹
B12: 106.3 single-chain variable fragment (scFv), unmutated, on yeast (scFv)
chain: QIQLVQSGPELRKPGETVKISCKGSGYTFTHYGINWVKQTPRKDLKWMGWINTHTGEPIYADDFKGRFAFSLETSANTAYLQINNLNNGDMGTYFCTRSHRFGLDYWGQGTSVTVSSGPAKELTPLKEAKVSDNVLTQSPPSLAVSLGQRATISCKASQSVDYNGDSYLNWYQQKPGQPPKFLIYAASNLESGIPARFSGSGSGTDFNLNIHPVEEEDAATYYCQQSNEDPFTFGSGTKLEIK

Kd [8]: 286 pM | Kd [9]: 380 pM | koff [9]: 0.0025 s⁻¹ | kon [9]: 6.7e+06 M⁻¹ s⁻¹ | Ratio B/A (RLU at 30 pg/mL over 0 pg/mL) [10]: 1.9 | Ratio C/A (RLU at 300 pg/mL over 0 pg/mL) [10]: 27.8 | Ratio D/A (RLU at 1000 pg/mL over 0 pg/mL) [10]: 196 | Ratio E/A (RLU at 2000 pg/mL over 0 pg/mL) [10]: 471 | Ratio B/A (RLU at 30 pg/mL over 0 pg/mL) [11]: 2.7 | Ratio C/A (RLU at 300 pg/mL over 0 pg/mL) [11]: 14.3 | Ratio D/A (RLU at 1000 pg/mL over 0 pg/mL) [11]: 32.4 | Ratio E/A (RLU at 2000 pg/mL over 0 pg/mL) [11]: 198 | Ratio F/A (RLU at 5000 pg/mL over 0 pg/mL) [11]: 595 | Kd [12]: 375 pM | Ratio B/A (RLU at 30 pg/mL over 0 pg/mL) [13]: 2.4 | Ratio C/A (RLU at 300 pg/mL over 0 pg/mL) [13]: 23.9 | Ratio D/A (RLU at 1000 pg/mL over 0 pg/mL) [13]: 145 | Ratio E/A (RLU at 2000 pg/mL over 0 pg/mL) [13]: 409
B13: monoclonal antibody 3-631-436 (wild-type mouse mAb from hybridoma cell line 3-631-436, A.T.C.C. PTA-6476) (antibody, V domains shown)
VH: B14 VH
VL: DVVMTQTPLTLSVTTGQPASISCKSSQSLLDSDGKTYLNWLFQRPGESPKLLIYVVSKLESGVPDRFTGSGSGTDFTLKISRVEAEDLGVYYCLQATHFPWTFGGGTKLEIK
modifications: In the sandwich assays the antibody was coupled to particles, biotinylated or acridinium-labelled; the letters do not carry this.
notes: the whole entry is named for each chain and must be cut at the linker; Coated on particles, biotinylated or acridinium-conjugated in the sandwich assays
